Target: T1, PTH receptor (Homo sapiens, UniProt Q03431)
T1 construct: expressed in transfected cells; host or cells: HEK-293
T1 sequence (Q03431 27-593): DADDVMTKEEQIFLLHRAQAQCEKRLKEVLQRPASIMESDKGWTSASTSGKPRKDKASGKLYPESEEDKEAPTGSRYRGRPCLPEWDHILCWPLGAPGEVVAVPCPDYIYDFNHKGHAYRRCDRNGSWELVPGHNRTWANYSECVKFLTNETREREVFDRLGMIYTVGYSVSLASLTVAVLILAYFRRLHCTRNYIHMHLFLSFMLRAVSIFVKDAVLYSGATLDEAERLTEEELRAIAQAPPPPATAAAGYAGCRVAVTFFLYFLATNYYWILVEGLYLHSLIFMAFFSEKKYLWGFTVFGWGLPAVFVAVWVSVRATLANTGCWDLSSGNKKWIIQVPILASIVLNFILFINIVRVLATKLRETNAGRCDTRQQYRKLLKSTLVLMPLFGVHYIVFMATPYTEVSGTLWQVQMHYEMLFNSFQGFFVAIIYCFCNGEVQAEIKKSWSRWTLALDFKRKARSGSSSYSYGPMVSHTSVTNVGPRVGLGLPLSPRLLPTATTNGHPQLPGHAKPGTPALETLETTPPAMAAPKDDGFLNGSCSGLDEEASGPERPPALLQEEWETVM
Experiment: Luciferase reporter assay in hPTH receptor-expressing HEK-293 cells
Assay type: cell-based
Details: clones of PTH receptor expressing HEK-293 cells bearing pMCL3zeo luciferase reporter gene; clones selected for assay development
Source text: This cell line is obtained as described by Pines et al., Endocrinology, 1994, 135(4), 1713-1716, incorporated herein by reference.
The firefly luciferase reporter gene bearing the cAMP responsive elements is amplified by PCR from the pDMC16LUC vector using the method of Spengler et al., Nature, 1993, 365: 170-175, incorporated herein by reference. The PCR product containing the MMTV promoter, sixteen cAMP responsive elements and the luciferase gene is inserted into the zeocin resistant vector (pUTSV1 from InVitrogen). The final vector, termed pMCL3zeo, is then introduced into PTH receptor expressing HEK-293 cells using the lipofectamine method (reagents and method obtained from Gibco/BRL). Cells incorporating the luciferase reporter gene are selected by including zeocin in the culture medium. By limited dilution, different cell clones are isolated and expanded. These clones are tested for their responsiveness to PTH in terms of luciferase expression.
hPTH receptor-expressing HEK-293 cells bearing the luciferase reporter gene are cultured to 80-90% confluency. […] The luciferase activity in the lysates is measured by the addition of the luciferin substrate (Promega assay kit) to effect light production. The output of light is measured in a Wallac Trilux microbeta plate reader.

parathyroid hormone [PTH] was tested, and the luciferase induction was 5-6 fold.
